Experiment: label from the status in PepcDB records

Sequence	protein production
DRFPVTPVSREDLAGVLEAVERLRHWRPAAAGAWAVDYRGMLEGVHAQGVFDDGHWADLLRLLELSGAPREFGHGDLVLANVVRSRGRQVLIDWASSALYLPGLDLAQLWMLLGDVPGARARIEVEVADRADDRDGMMPFLVNLTLLLYRERRAHRRF	failed
DVLSSSNFILPDGIGVVMMSRLTNNRLQSRIAGYDVFKELLGVANKKKKRIFLYGAKKDVIKGVVSKISSEYPNIKIAGYSDGYVQDRTLVAKQIARANPDMVFVALGYPHQEKFIHNYRHLFPKAVSIGLGGSFDVFSGNVKRAPSWMIRLNLEWFYRLILNPWRWKRM	not failed
DVREFQPENFARFHPGGSLGRRLLSKVQDEMFSDNIPSVASDADFTSIIHKISSSHLGLTLVNLKDDSLAIITDGDLRRAMESKGRDAFDLVAKDIASINPASISPESNIQKAYEIMESKGITSLIVVESNSVVGIL	failed
DYIEGVIADISDVYDELRLRKQAEVALQASEAELRSLFSAIPDPLCVVTAQGRVIETVAGNPRQLYSSVEEKVGKTLHQIFEEEQADKFMGYIQQVLRTQQVLTVEYSLQIDGRETWFSARIAPIRHE	failed
EADMLFSVTVPGSTANLGPGFDSVGMALSRYLKLTVFESDKWSFEAETETVAGIPAGTDNLIYQVAKRTADLYGKEMPPVHVKVWSDIPLARGLGSSAAAIVAAIELADELCGLKLSEADKLHLASLEEGHPDNAGASLVGGLVIGLHEDDETQM	failed
ECSQDCATCSYRLVRPADINFLACVMECEGKLPSLKIWETCKELLQLSKPELPQDGTSTLRENSKPEESHLLAKRYGGFMKRYGGFMKKMDELYPMEPEE	failed
EDFRPVVFVHGLAGSAGQFESQGMRFAANGYPAEYVKTFEYDTISWALVVETDMLFSGLGSEFGLNISQIIDPETLDKILSKSRERLIDETFSRLDRVIDEALAESGADKVDLVGHSMGTFFLVRYVNSSPERAAKVAHLILLDGVWGVDAPEGIPTLAVFGNPKALPALGLPEEKVVYNATNVYFNNMTHVQLCTSPETFAVMFEFINGYKPATT	not failed
EDPFQPEIKVRCVCGNSLETDSMIQVIWDELTAFIPCEDPRCHVWQHVGCVILPDKPMDGNPPLPESFYCEICRLT	not failed
EDPGDAQVVFARLDAYIRRHLQSEIEVAALAEQAHMSTRSLYALFERQLGESPRQYIRRLRLERIRACLEDPGCRVRNLTELALDFGFAHLGRFAEQYRRQFGELPSETLRRRA	failed
EDVKEFEREETQDKEESVESSLPLNAIEPCVICQGRPKNGCIVHGKTGHLMACFTCAKKLKKRNKPCPVCRQPIQMIVLTYFP	failed
EEAGRSATEIARAVAAVSAPIDLVAAGAAIDSGVNRLIYTRHFLRTMIPNALAKWQQHPGLFDRELVQRATTLREFDDAFTAPLHGFTGVDDYWTRASSKPHLHKITIPALVVNARNDPFVPAVSLPTQDEVGEMVTLWQPDEGGHVGFATGPWPGRIAAMPEAVSDWLGAV	failed
EEKPCGFPHVENGRIAQYYYTFKSFYFPMSIDKKLSFFCLAGYTTESGRQEEQTTCTTEGWSPEPRCFKKCTKPDLSNGYISDVK	failed
EEMEKGFDPKRYARELWFKLQDMMNEGLGYDAVEVLNTLDENPELAHQKFAKVVGVSNYRYYIIQGVGEIVEIKDDGILVKVRENRKVPDLFLSNHIFGNGIVNATGIAKMEDFDRIIDFNLTATELNKIVKEEVVNSFLKQLSKGAGSVGSLVRFIAVFTLLKDEEIKYPIEAIPLYLEIQGGF	not failed
EGAGDALTTVAERARLLADACAGVILHPTAEGGMAIVTASTPDDPDGMVGATIEPGSPVLEQLLGGEPVFVDDSATDPRMTTHVRHRFGPSMMLPLQAGGRLIGTLALPRRRGGRPYTDLERLLATQFASQAALALVLADARRGRELLAVYEDRDRIARDLHDLVV	failed
EGLNICKKIMVISDKNDAISEFIIKELERGCTIIDGKGGYTGKDTYILYTVLNRKEFIRLRIFIKETDPNAFITISDAKEVLGEGFKEI	not failed
EHIARRKAGDAAERLVKLIPAFCHHMPDYPDTQETCEAAVVKLKAGDIVLVKPGETIPVDGTVLEGSSAVNESMLTGESLPVAKMPSEKVTAGTLNTQSPLIIRTDRTGGGTRLSHIVRLLDRALAQKPRTAELAEQ	failed
EIKIGITMSASGPGAALGQPQSKTVAALPKEIGGEKVTYFALDDESDPTKAAQNARKLLSEEKVDVLIGSSLTPVSLPLIDIAAEAKTPLMTMAAAAILVAPMDERRKWVYKVVPNDDIMAEAIGKYIAKTGAKKVGYIGFSDAYGEGYYKVLAAAAPKLGFELTTHEVYARSDASVTGQVLKIIATKPDAVFIASAGTPAVLPQKALRERGFKGAIYQTHGVATEEFIKLGGKDVEGAIFAGEAFSGAEDMPADSPFRKVKARFVDAYKAANGGAAPTIFGVHLWDSMTLVENAIPAALKAAKPGTPEFRAAIRDQIEKSKDLALNNGLSNMTPDNHNGYDERSAFLIEIRDGAFRLKQ	not failed
EKAEDCWELQISPELLAHGRQKILDLLNEGSARDLRSLQRIGPKKAQLIVGWRELHGPFSQVEDLERVEGITGKQMESFLKANILGLAAGQ	not failed
EKDTIAAEHKQEASVLLNLHRNKINYLIGETMARMTSLSIAIDRPVDIKKMQSILEKTFDSEPRFSGLYFLNAKGDVTASTTELKTKVNLADRSFFIKAKETKKTVISDSYSSRITGQPIFTICVPVLDSKRNVTDYLVAAIQIDYLKNLINLLSPDVYIEVVNQDGKMIFASGQASHAEDQKPVSGYLDDISWNMKVYPNPVTIEELSKS	failed
EKEKDTIAAEHKQEASVLLNLHRNKINYLIGETMARMTSLSIAIDRPVDIKKMQSILEKTFDSEPRFSGLYFLNAKGDVTASTTELKTKVNLADRSFFIKAKETKKTVISDSYSSRITGQPIFTICVPVLDSKRNVTDYLVAAIQIDYLKNLINLLSPDVYIEVVNQDGKMIFASGQASHAEDQKPVSGYLDDISWNMKVYPNPVTIEELSKSL	not failed
EKVDLQYAAYEPKKLQSGNKNPLIIWLHGQGEGGTDPDITLLGNKVTALIKEDIQNHFKSGNQKGTYVLTVQAPTYWMDEGDGSNGQGAGTSRYTEVLMDAIKKYVAKIT	failed
ELAWLVDCLAPIFDGLRQPVTVVDPSGRFVYYNRASGLLDGLDPQRALGMHLLQSAPWLAAEQSTLLRCLAEGRPSIDTLQAYVGAGGELLQYRHRAIPLRGRDGCLLGAMEL	failed
EMRLEKDRFSVNLDVKHFSPEELKVKVLGDVIEVHGKHEERQDEHGFISREFHRKYRIPADVDPLTITSSLSSDGVLTVNGPRKQVSGPERTIPIT	failed
EMTLVTLRSNDQFNTTIYGFSDRLRGLEGPRNVLLMNPEEIARHGLHEGQRVTLECAWSDGVDRRVSGLRVTAYDLPDSCVGAYYPETNPLVPLAARDELSGTPAYKGTPVRVRAEGSAAPL	failed
EPEQVIRKYTEELKVAPEEDCIICMEKLAVASGYSDMTDSKALGPMVVGRLTKCSHAFHLLCLLAMYCNGNKDGSLQCPSCKTIYGEKTGTQPWGKMEVFR	not failed
EQVQRFGDLDVHYNVFNSSFLQPNVASAVGLVRSKAQGVINVVPMEKGKPVEAAVTGSAKDLTGKVIPLEFRRVSEEGAIYNLAQFPISQRETLVFTIKVEAKGEPAQTFSFNKEIFPDE	not failed
ERREKKNKIMQAKEDFKKMMEEAKFNPRATFSEFAAKHAKDSRFKAIEKMKDREALFNEFVAAARKKEKE	not failed
ETTMPASRSLVDKPVHRFEIIPWNGKKVGYLMYNEFKAGPTTDSQAYNDDLRRAFRDFQTGGVNEFVLDLRYNTGGSLDCAQLLCTMLAPADKMNQLLALLRYSDKRVEANQDLTFNPELIQSGANLNLSTVYVLTTNATRGAAEMVINCLNPYMKVVLIGTKTAGEYVATKPFVHPTDRFILNLVVCNVYNAEEKSDYATGFKPTYEYNEDSYLSTYLPFGNTNETLLNAALKIMSGITDK	failed
EVILGDGIFPLTALAVGKDDRAFAVIRTAGGQAPHPDVDFPELSSTGLLLSSLKPADRALLPEGTPDREVSIDLGGQMMPYEWRILTDGQSSSATVQEGQRLRMVMRNRTMMPHPMHIHGHTWALPGSGGLRKDTVLLRHGETMIADLIADNPGEWAFHCHNAYHMETGMLSSLRYE	failed

— a protein production outcome set (Wang et al. 2014)
